Experiment [1] concerns the target neuropeptide Y2 receptor (SK-N-BE cell membranes) (UniProt P49146). The experiment can be described thus: [125I]-human PYY displacement, SK-N-BE membranes.
Experiment [2] concerns the target calcitonin receptor. Kind of experiment: cell-based or functional assay.
The target of experiment [3] is calcitonin receptor. Kind of experiment: calcitonin receptor binding assay.

Sequence of neuropeptide Y2 receptor (SK-N-BE cell membranes) (P49146 whole entry): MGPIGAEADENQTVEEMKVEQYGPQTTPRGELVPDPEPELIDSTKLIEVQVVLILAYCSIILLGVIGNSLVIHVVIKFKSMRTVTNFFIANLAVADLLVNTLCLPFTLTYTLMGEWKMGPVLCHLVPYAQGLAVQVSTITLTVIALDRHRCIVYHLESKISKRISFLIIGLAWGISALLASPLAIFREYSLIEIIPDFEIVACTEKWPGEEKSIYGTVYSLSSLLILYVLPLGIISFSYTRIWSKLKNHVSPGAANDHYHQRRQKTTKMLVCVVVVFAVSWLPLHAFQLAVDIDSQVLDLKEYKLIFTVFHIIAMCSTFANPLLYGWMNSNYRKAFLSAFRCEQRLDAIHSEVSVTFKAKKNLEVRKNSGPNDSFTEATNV

For “[Ac-alpha-MSH-bAla-bAla-PYY-(3-36), amide] (peptide; modification not given)”, the Receptor Binding in experiment [1] came to 0.2.
The same measure, in the same setting: the value for “[#Cys-Gly-Gly-PYY (3-36), amide] [Asp(#)-Pro-Pro-Pro-Pro-Pro-Pro-PYY (3-36), amide] (peptide; modification not given)” was 0.8; that for “[Asp(#)-miniPEG-Gly-PYY (3-36), amide] [#Cys-Gly-Gly-PYY (3-36), amide] (peptide; modification not given)” was 0.8.
Regarding “[#NH-Cys-(bAla)-PYY-(3-36), amide] [#Suc-(bAla)-PYY-(3-36), amide] (peptide)”, the Receptor Activation: CT cyclase in experiment [2] is 2270. Besides, in experiment [3], the Receptor Binding was 643.
In turn, “[#Cys-Gly-Gly-PYY (3-36), amide] [Asp(#)-miniPEG3-Gly-PYY (3-36), amide] (peptide; modification not given)” had a Receptor Binding in experiment [1] of 0.8.

Values taken from patent US20090286723A1.
